Experimental data reported in the supplement of paper PMC7877785.
± gives the uncertainty stated by the source.

Experiment: self-splicing fitness, log relative to wild type (ln ratio); higher = more splicing; Tetrahymena group I intron in knt gene, E. coli kanamycin selection, DiMSum; sequences stand for … in CUCUCU…GGAGGGAAAAGUUAUCAGGCAUGCACCUGGUAGCUAGUCUUUAAACCAAUAGAUUGCAUCGGUUUAAAAGGCAAGACCGUCAAAUUGCGGGAAAGGGGUCAACAGCCGUUCAGUACCAAGUCUCAGGGGAAACUUUGAGAUGGCCUUGCAAAGGGUAUGGUAAUAAGCUGACGGACAUGGUCCUAACCACGCAGCCAAGUCCUAAGUCAACAGAUCUUCUGUUGAUAUGGAUGCAGUUCACAGACUAAAUGUCGGUCGGGGAAGAUGUAUUCUUCUCAUAAGAUAUAGUCGGACCUCUCCUUAAUGGGAGCUAGCGGAUGAAGUGAUGCAACACUGGAGCCGCUGGGAACUAAUUUGUAUGCGAAAGUAUAUUGAUUAGUUUUGGAGUACUCGUGGUCG
In short: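 DiMSum derived fitness as the error-weighted combination of fold changes across replicates, kanamycin versus no kanamycin, normalised to wild type. E. coli BL21(DE3) held the library, which randomised all eight P1ex-region intron nucleotides within the knt kanamycin-resistance gene on pET-22b(+). Six replicate transformations grew overnight at 37°C or 30°C on LB agar with or without 25 μg/mL kanamycin, also containing 100 μg/mL carbenicillin, 50 μM IPTG and 0.2% rhamnose, and pooled colonies were amplicon-sequenced on an Illumina HiSeq 2500.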

Sequence: CAGUAGCAAUAUUACGCGUU
- self-splicing fitness (ln) (30 °C): -2.21 ± 0.23
- self-splicing fitness (ln) (37 °C): -1.64 ± 0.23

Sequence: CCACAGCAAUAUUACGGUGA
- self-splicing fitness (ln) (30 °C): -0.943 ± 0.06
- self-splicing fitness (ln) (37 °C): -0.339 ± 0.062

Sequence: UCUCAGCAAUAUUACGCGAC
- self-splicing fitness (ln) (37 °C): -2.37 ± 0.35

Sequence: UUUUAGCAAUAUUACGGCCU
- self-splicing fitness (ln) (30 °C): -1.53 ± 0.26
- self-splicing fitness (ln) (37 °C): -1.87 ± 0.33

Sequence: GUUGAGCAAUAUUACGCCGU
- self-splicing fitness (ln) (30 °C): -2.98 ± 0.23
- self-splicing fitness (ln) (37 °C): -0.768 ± 0.16

Sequence: UGGCAGCAAUAUUACGCCUU
- self-splicing fitness (ln) (30 °C): -1.65 ± 0.14
- self-splicing fitness (ln) (37 °C): -0.596 ± 0.21

Sequence: AAGAAGCAAUAUUACGAAAU
- self-splicing fitness (ln) (30 °C): -1.98 ± 0.17
- self-splicing fitness (ln) (37 °C): -2.03 ± 0.19

Sequence: CAUCAGCAAUAUUACGGACU
- self-splicing fitness (ln) (30 °C): -3.78 ± 0.22
- self-splicing fitness (ln) (37 °C): -0.896 ± 0.13

Sequence: UCGAAGCAAUAUUACGCGCC
- self-splicing fitness (ln) (37 °C): -1.49 ± 0.28

Sequence: CCUGAGCAAUAUUACGGCCC
- self-splicing fitness (ln) (30 °C): -2.54 ± 0.32

Sequence: GCGGAGCAAUAUUACGGGGU
- self-splicing fitness (ln) (30 °C): -1.55 ± 0.23

Sequence: AGUCAGCAAUAUUACGAGCC
- self-splicing fitness (ln) (30 °C): -0.0313 ± 0.25
- self-splicing fitness (ln) (37 °C): 0.0229 ± 0.3

Sequence: GUAAAGCAAUAUUACGCCAU
- self-splicing fitness (ln) (30 °C): -1.89 ± 0.1
- self-splicing fitness (ln) (37 °C): -0.44 ± 0.12

Sequence: ACCCAGCAAUAUUACGAACA
- self-splicing fitness (ln) (30 °C): -0.802 ± 0.11
- self-splicing fitness (ln) (37 °C): -1.35 ± 0.13

Sequence: CCACAGCAAUAUUACGAAUC
- self-splicing fitness (ln) (30 °C): -2.71 ± 0.18
- self-splicing fitness (ln) (37 °C): -2.3 ± 0.3

Sequence: CGCCAGCAAUAUUACGCUAA
- self-splicing fitness (ln) (30 °C): -2.34 ± 0.15
- self-splicing fitness (ln) (37 °C): -1.29 ± 0.14

Sequence: UAGAAGCAAUAUUACGUAGC
- self-splicing fitness (ln) (30 °C): -3.74 ± 0.26
- self-splicing fitness (ln) (37 °C): -2.43 ± 0.23

Sequence: CGUUAGCAAUAUUACGUGUC
- self-splicing fitness (ln) (30 °C): -4.28 ± 0.37
- self-splicing fitness (ln) (37 °C): -2.18 ± 0.18

Sequence: CGUGAGCAAUAUUACGCGCC
- self-splicing fitness (ln) (30 °C): -2.85 ± 0.36
- self-splicing fitness (ln) (37 °C): -1.95 ± 0.28

Sequence: CCCCAGCAAUAUUACGUUCG
- self-splicing fitness (ln) (30 °C): -3.53 ± 0.16
- self-splicing fitness (ln) (37 °C): -2.79 ± 0.17

Sequence: CCCAAGCAAUAUUACGCCGU
- self-splicing fitness (ln) (30 °C): -3.66 ± 0.22
- self-splicing fitness (ln) (37 °C): -2.21 ± 0.19

Sequence: GCGCAGCAAUAUUACGAGUG
- self-splicing fitness (ln) (30 °C): -1.6 ± 0.1
- self-splicing fitness (ln) (37 °C): -1.47 ± 0.15

Sequence: AUCAAGCAAUAUUACGCGUU
- self-splicing fitness (ln) (30 °C): -2.66 ± 0.089
- self-splicing fitness (ln) (37 °C): -0.858 ± 0.095

Sequence: UGUUAGCAAUAUUACGUGGU
- self-splicing fitness (ln) (30 °C): -4.24 ± 0.19
- self-splicing fitness (ln) (37 °C): -2.76 ± 0.14

Sequence: AGCCAGCAAUAUUACGAUCG
- self-splicing fitness (ln) (30 °C): -3.74 ± 0.26
- self-splicing fitness (ln) (37 °C): -1.69 ± 0.15

Sequence: AUGCAGCAAUAUUACGUGUG
- self-splicing fitness (ln) (30 °C): -2.45 ± 0.071
- self-splicing fitness (ln) (37 °C): -1.44 ± 0.085

Sequence: GGGAAGCAAUAUUACGAUCG
- self-splicing fitness (ln) (30 °C): 0.00926 ± 0.13
- self-splicing fitness (ln) (37 °C): -0.00218 ± 0.13

Sequence: CACUAGCAAUAUUACGUUCU
- self-splicing fitness (ln) (30 °C): -3.24 ± 0.17
- self-splicing fitness (ln) (37 °C): -1.39 ± 0.14

Sequence: UCCGAGCAAUAUUACGCCGA
- self-splicing fitness (ln) (30 °C): -1.56 ± 0.23
- self-splicing fitness (ln) (37 °C): -0.047 ± 0.16

Sequence: GUGUAGCAAUAUUACGAGAG
- self-splicing fitness (ln) (37 °C): -1.52 ± 0.47

Sequence: GGUAAGCAAUAUUACGCACG
- self-splicing fitness (ln) (30 °C): 0.408 ± 0.12
- self-splicing fitness (ln) (37 °C): -0.102 ± 0.14

Sequence: AAUUAGCAAUAUUACGGCUC
- self-splicing fitness (ln) (30 °C): -0.532 ± 0.14
- self-splicing fitness (ln) (37 °C): 0.0268 ± 0.16

Sequence: CCUUAGCAAUAUUACGUUAA
- self-splicing fitness (ln) (30 °C): -3.13 ± 0.27
- self-splicing fitness (ln) (37 °C): -2.71 ± 0.31

Sequence: ACUCAGCAAUAUUACGAAAG
- self-splicing fitness (ln) (30 °C): -1.78 ± 0.12
- self-splicing fitness (ln) (37 °C): -1.42 ± 0.15

Sequence: CGCUAGCAAUAUUACGACUC
- self-splicing fitness (ln) (30 °C): -1.4 ± 0.1
- self-splicing fitness (ln) (37 °C): -1.61 ± 0.15

Sequence: UCAUAGCAAUAUUACGAGUG
- self-splicing fitness (ln) (30 °C): -1.8 ± 0.11
- self-splicing fitness (ln) (37 °C): -0.999 ± 0.11

Sequence: AUUCAGCAAUAUUACGAUAG
- self-splicing fitness (ln) (30 °C): -3.99 ± 0.42
- self-splicing fitness (ln) (37 °C): -2.57 ± 0.26

Sequence: AUAAAGCAAUAUUACGCCCU
- self-splicing fitness (ln) (30 °C): 0.347 ± 0.15
- self-splicing fitness (ln) (37 °C): 0.95 ± 0.18

Sequence: AUGUAGCAAUAUUACGCGGU
- self-splicing fitness (ln) (30 °C): -2.3 ± 0.15
- self-splicing fitness (ln) (37 °C): -1.58 ± 0.2
